Data published in patent US20060134087A1, “ITI-D1 Kunitz domain mutants as hNE inhibitors” (Dyax Corp., published 2006).

B1: MA-ITI-D1E7 display phage (designed binder)
chain: KEDSCQLGYSAGPCVAMFPRYFYNGTSMACETFQYGGCMGNGNNFVTEKDCLQTCRGA
B2: EPI-HNE-3 (designed binder)
chain: AACNLPIVRGPCIAFFPRWAFDAVKGKCVLFPYGGCQGNGNKFYSEKECREYCGVP

How the values were obtained:
[1] = molecular target: T1, Human Neutrophil Elastase (human, UniProt P08246); experiment: abbreviated fractionation of display phage on hNE beads
Procedure: (§1) To test if ITI-D1E7-display phage bind hNE beads, pH elution profiles were measured. Aliquots of EpiNE-7, MA-ITI-D1, and MA-ITI-D1E7 display phage were incubated with hNE beads for three hours at room temperature (RT). The beads were washed and phage were eluted as described in U.S. Pat. No. 5,223,409, except that only three pH elutions were performed.

[2] = molecular target: T1, Human Neutrophil Elastase; experiment: display phage eluted from hNE beads, normalized to MA-EpiNE7 in a concurrent elution
[3] = molecular target: T1, Human Neutrophil Elastase; experiment: display phage on hNE beads, pH elution
Procedure: as §1

[4] = molecular target: T1, Human Neutrophil Elastase; experiment: inhibition of hNE hydrolysis of a fluorogenic substrate, [hNE] = 8.47 × 10^-10 molar
Procedure: (§2) Inhibition constants for the proteins reacting with hNE (Kᵢ) were determined using RT measurements of hydrolysis of a fluorogenic substrate (N-methoxysuccinyl-Ala-Ala-Pro-Val-7-amino-4-methylcoumarin, Sigma M-9771) by hNE. […] The reactions were incubated at RT for 30 minutes. At the end of the incubation period, the fluorogenic substrate was added at a concentration of 25 μM and the time course for increase in fluorescence at 470 nm (excitation at 380 nm) due to enzymatic substrate cleavage was recorded using a spectrofluorimeter (Perkin-Elmer 650-15) and strip chart recorder. […] Kᵢ is related to Kₐₚₚₐᵣₑₙₜ by Kᵢ=Kₐₚₚₐᵣₑₙₜ×(1/(1+(S₀/Kₘ))). The correction is small compared to the possible errors in Kₐₚₚₐᵣₑₙₜ. Rates of enzymatic substrate cleavage were determined from the linear slopes of the recorded increases in fluorescence.
(§3) We recorded data used to determine Kᵢ for EPI-HNE-2 and EPI-HNE-3 reacting with hNE. Data obtained as described above are recorded as percent residual activity plotted as a function of added inhibitor. […] From the data, Kᵢ values for EPI-HNE-2 and for EPI-HNE-3 reacting with hNE at RT were calculated to be 4.8 pM and 6.2 pM, respectively.

[5] = molecular target: T1, Human Neutrophil Elastase; experiment: hNE inhibition assay of EPI-HNE-3 stored in unbuffered water at 4° C. for five months
Human Urine Urokinase = Human Urine Urokinase (human, UniProt P00749); experiment: enzyme inhibition assay; limit on the assumption of less than 10% inhibition at the highest concentration tested
Human Serum Thrombin = Human Serum Thrombin (human, UniProt P00734); experiment: as above
Human Serum Plasmin = Human Serum Plasmin (human, UniProt P00747); experiment: as above
Human Serum Kallikrein = Human Serum Kallikrein (human, UniProt P03952); experiment: as above
Human Plasma Factor Xa = Human Plasma Factor Xa (human, UniProt P00742); experiment: as above
[6] = molecular target: T1, Human Neutrophil Elastase; experiment: enzyme inhibition assay
Procedure: as §2, §3

[7] = molecular target: T1, Human Neutrophil Elastase; experiment: progressive inhibition of hNE substrate hydrolysis after addition of inhibitor
Procedure: The kinetic on-rates for the inhibitors reacting with hNE (kₒₙ) were determined from measurements of progressive inhibition of substrate hydrolytic activity by hNE following addition of inhibitor. For these experiments, a known concentration of inhibitor was added to a solution of hNE (0.847 nM) and substrate (25 μM) in 2 ml of reaction buffer in a plastic fluorescence cuvette. The change in fluorescence was recorded continuously following addition of the inhibitor. […] The enzymatic rate at selected times following addition of the inhibitor was determined from the slope of the tangent to the fluorescence time course at that time.
The kinetic constant kₒₙ for EPI-HNE-2 reacting with hNE was determined as follows. EPI-HNE-2 at 1.3 nM was added to buffer containing 0.867 nM hNE (I:E=1.5:1) at time 0.

[8] = molecular target: Human Pancreatic Chymotrypsin (human, UniProt P17538); experiment: enzyme inhibition assay; said to be probably not specific
[9] = molecular target: T1, Human Neutrophil Elastase; experiment: calculated by the filing from koff = KD × kon
Text: […] […] B. Specificity.

Binder	fraction of input eluted at pH 3.5 [1]	fraction of input in Wash [1]	Normalized fraction of input (relative to recovered MA-EpiNE7) [2] [ratio]	fold less total fraction eluted than EpiNE-7 display phage [3] [fold]	Kd [4] [pM]	Ki [5] [nM]	Ki (Human Urine Urokinase) [µM]	Ki (Human Serum Thrombin) [µM]	Ki (Human Serum Plasmin) [µM]	Ki (Human Serum Kallikrein) [µM]	Ki (Human Plasma Factor Xa) [µM]	Ki [6] [pM]	kon [7] [M⁻¹ s⁻¹]	Ki [8] [µM]	koff [9] [s⁻¹]
B1	8e-05 fraction of input	2e-05 fraction of input	0.027	~40											
B2					6.2	~0.012	> 100	> 100	> 100	> 100	> 100	6	8e+06	~30	5e-05
